# Tested on: Escherichia coli TOP10
# Test: shrunken log2 fold change of peptide-encoding DNA abundance (4.5 h post-induction vs induction); higher = less antimicrobial activity (less host growth inhibition)
# Conditions: time post-induction: 4.5 h; library: site-saturation at positions 5, 18, 19, 20
# 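Further: peptides expressed intracellularly from a pBAD plasmid library in pooled LB shake-flask culture, induced with 0.3% L-arabinose, DNA abundance read by NGS, three biological replicates, DESeq2 with apeglm shrinkage.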
row,Sequence,shrunken log2 fold change
1,RRIRERPPRLPRPRPRPNNHPRP,-0.933
2,RRIRLRPPRLPRPRPRPEWFPRP,0.161
3,RRIRIRPPRLPRPRPRPTNCPRP,-0.649
4,RRIRDRPPRLPRPRPRPHNAPRP,-0.0997
5,RRIRARPPRLPRPRPRPKVDPRP,-0.0797
6,RRIRIRPPRLPRPRPRPDETPRP,-0.183
7,RRIRPRPPRLPRPRPRPIQVPRP,0.0596
8,RRIRRRPPRLPRPRPRPTSVPRP,0.227
9,RRIRPRPPRLPRPRPRPAKRPRP,0.035
10,RRIRVRPPRLPRPRPRPKYWPRP,-0.126
11,RRIRGRPPRLPRPRPRPANDPRP,0.902
12,RRIRVRPPRLPRPRPRPRGTPRP,-0.164
13,RRIRLRPPRLPRPRPRPHIQPRP,-0.341
14,RRIRERPPRLPRPRPRPCKIPRP,-0.00331
15,RRIRARPPRLPRPRPRPDWDPRP,0.341
16,RRIRDRPPRLPRPRPRPVKLPRP,-0.896
17,RRIRGRPPRLPRPRPRPWQPPRP,-0.12
18,RRIRERPPRLPRPRPRPHDQPRP,0.0804
19,RRIRHRPPRLPRPRPRPTLNPRP,0.134
20,RRIRERPPRLPRPRPRPGFIPRP,-0.256
21,RRIRIRPPRLPRPRPRPAQWPRP,0.211
22,RRIRVRPPRLPRPRPRPIVKPRP,-0.0955
23,RRIRMRPPRLPRPRPRPNNLPRP,-0.259
24,RRIRWRPPRLPRPRPRPYFRPRP,-0.787
25,RRIRWRPPRLPRPRPRPDNNPRP,-0.0431

row,Sequence,shrunken log2 fold change
1,RRIRARPPRLPRPRPRPLLGPRP,1.07
2,RRIRKRPPRLPRPRPRPTHQPRP,0.612
3,RRIRKRPPRLPRPRPRPPMRPRP,0.918
4,RRIRERPPRLPRPRPRPKMWPRP,-0.0633
5,RRIRDRPPRLPRPRPRPKMPPRP,-0.0144
6,RRIRARPPRLPRPRPRPMYMPRP,-0.354
7,RRIRNRPPRLPRPRPRPLYLPRP,-0.54
8,RRIRVRPPRLPRPRPRPCRFPRP,-0.464
9,RRIRLRPPRLPRPRPRPCVWPRP,-0.0182
10,RRIRIRPPRLPRPRPRPQQKPRP,0.0242
11,RRIRCRPPRLPRPRPRPKSSPRP,0.122
12,RRIRYRPPRLPRPRPRPNLFPRP,-0.676
13,RRIRTRPPRLPRPRPRPHPFPRP,-0.00172
14,RRIRLRPPRLPRPRPRPQTAPRP,0.0246
15,RRIRNRPPRLPRPRPRPKTGPRP,-0.0778
16,RRIRSRPPRLPRPRPRPEFGPRP,0.358
17,RRIRQRPPRLPRPRPRPDIFPRP,-0.104
18,RRIRCRPPRLPRPRPRPYRHPRP,-0.982
19,RRIRDRPPRLPRPRPRPCMEPRP,-0.0179
20,RRIRIRPPRLPRPRPRPEWYPRP,-0.142
21,RRIRERPPRLPRPRPRPWKMPRP,0.00355
22,RRIRHRPPRLPRPRPRPKIAPRP,0.00548
23,RRIRYRPPRLPRPRPRPTPKPRP,0.167
24,RRIRDRPPRLPRPRPRPFPWPRP,-0.192
25,RRIRWRPPRLPRPRPRPTMMPRP,0.113

row,Sequence,shrunken log2 fold change
1,RRIRVRPPRLPRPRPRPDEEPRP,0.393
2,RRIRFRPPRLPRPRPRPYEQPRP,0.00332
3,RRIRDRPPRLPRPRPRPATFPRP,0.222
4,RRIRIRPPRLPRPRPRPSSMPRP,-0.432
5,RRIRFRPPRLPRPRPRPRVCPRP,0.152
6,RRIRKRPPRLPRPRPRPLWRPRP,0.609
7,RRIRWRPPRLPRPRPRPVFHPRP,0.379
8,RRIRYRPPRLPRPRPRPDRQPRP,-0.0345
9,RRIRDRPPRLPRPRPRPKPKPRP,0.254
10,RRIRARPPRLPRPRPRPCACPRP,0.0599
11,RRIRERPPRLPRPRPRPFVPPRP,-0.507
12,RRIRGRPPRLPRPRPRPWTGPRP,-0.0411
13,RRIRWRPPRLPRPRPRPCHMPRP,-0.0433
14,RRIRHRPPRLPRPRPRPLHNPRP,-0.602
15,RRIRHRPPRLPRPRPRPCMRPRP,0.0267
16,RRIRKRPPRLPRPRPRPVCIPRP,0.0558
17,RRIRCRPPRLPRPRPRPSANPRP,0.0237
18,RRIRWRPPRLPRPRPRPLQMPRP,0.161
19,RRIRSRPPRLPRPRPRPEFAPRP,0.413
20,RRIRARPPRLPRPRPRPGHRPRP,0.033
21,RRIRERPPRLPRPRPRPRSIPRP,0.0163
22,RRIRDRPPRLPRPRPRPREVPRP,0.454
23,RRIRDRPPRLPRPRPRPWPAPRP,0.308
24,RRIRDRPPRLPRPRPRPGVAPRP,0.76
25,RRIRKRPPRLPRPRPRPRSQPRP,0.051

row,Sequence,shrunken log2 fold change
1,RRIRSRPPRLPRPRPRPREYPRP,-0.0557
2,RRIRVRPPRLPRPRPRPMGVPRP,-0.0267
3,RRIRERPPRLPRPRPRPFDKPRP,-1.7
4,RRIRVRPPRLPRPRPRPGWIPRP,0.486
5,RRIRMRPPRLPRPRPRPRPDPRP,0.937
6,RRIRRRPPRLPRPRPRPGHEPRP,0.00414
7,RRIRCRPPRLPRPRPRPPNLPRP,-0.0983
8,RRIRGRPPRLPRPRPRPYCEPRP,0.22
9,RRIRWRPPRLPRPRPRPEGQPRP,4.45
10,RRIRPRPPRLPRPRPRPHFTPRP,-0.302
11,RRIRPRPPRLPRPRPRPQNLPRP,-0.0683
12,RRIRHRPPRLPRPRPRPADLPRP,-0.0314
13,RRIRERPPRLPRPRPRPDWKPRP,-0.0141
14,RRIRNRPPRLPRPRPRPAAEPRP,0.232
15,RRIRARPPRLPRPRPRPHHWPRP,0.145
16,RRIRHRPPRLPRPRPRPFCHPRP,-0.308
17,RRIRNRPPRLPRPRPRPTCPPRP,0.059
18,RRIRGRPPRLPRPRPRPIKDPRP,0.309
19,RRIRVRPPRLPRPRPRPHCVPRP,-0.315
20,RRIRARPPRLPRPRPRPKQWPRP,0.587
21,RRIRVRPPRLPRPRPRPVIRPRP,-0.375
22,RRIRYRPPRLPRPRPRPVSRPRP,-0.0816
23,RRIRSRPPRLPRPRPRPTFEPRP,0.0262
24,RRIRPRPPRLPRPRPRPIMIPRP,-0.169
25,RRIRRRPPRLPRPRPRPFSNPRP,-0.0243

row,Sequence,shrunken log2 fold change
1,RRIRKRPPRLPRPRPRPRWYPRP,0.275
2,RRIRLRPPRLPRPRPRPNMPPRP,-0.265
3,RRIRARPPRLPRPRPRPVVQPRP,0.511
4,RRIRNRPPRLPRPRPRPWGNPRP,0.00408
5,RRIRARPPRLPRPRPRPHNAPRP,-0.0368
6,RRIRERPPRLPRPRPRPCKKPRP,0.0187
7,RRIRNRPPRLPRPRPRPPAGPRP,0.637
8,RRIRQRPPRLPRPRPRPDNMPRP,-0.163
9,RRIRGRPPRLPRPRPRPPVAPRP,1.22
10,RRIRDRPPRLPRPRPRPFWGPRP,0.127
11,RRIRTRPPRLPRPRPRPLLRPRP,0.0975
12,RRIRKRPPRLPRPRPRPEDHPRP,0.247
13,RRIRLRPPRLPRPRPRPHERPRP,0.274
14,RRIRDRPPRLPRPRPRPNKAPRP,0.0205
15,RRIRDRPPRLPRPRPRPFLQPRP,-0.091
16,RRIRWRPPRLPRPRPRPQGVPRP,0.198
17,RRIRARPPRLPRPRPRPLHPPRP,0.256
18,RRIRARPPRLPRPRPRPTWGPRP,0.625
19,RRIRRRPPRLPRPRPRPQHEPRP,0.343
20,RRIRYRPPRLPRPRPRPMLLPRP,-0.871
21,RRIRWRPPRLPRPRPRPTDYPRP,0.233
22,RRIRNRPPRLPRPRPRPYVWPRP,-0.135
23,RRIRARPPRLPRPRPRPVKPPRP,0.236
24,RRIRIRPPRLPRPRPRPSKTPRP,0.0676
25,RRIRCRPPRLPRPRPRPKIMPRP,-0.622
